Test results as given in the supplement of paper PMC10201428.
± gives the standard deviation of the averaged measurements.

Key:
[1] = system: VchCAST RNA-guided transposition machinery (E. coli BL21(DE3) host, lacZ target); assay: relative integration efficiency (T-RL orientation) vs wild-type transposon end (log2 (normalized fold change)); transposon end mutated: left end; higher = more efficient transposition
Outline: (§1)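 Relative integration efficiency is a fold change of output over input barcode abundance, normalised to reference barcodes and log-transformed. Input plasmids and genomic integration junctions were PCR-amplified and Illumina-sequenced from E. coli BL21(DE3) co-transformed with a T7-driven effector plasmid and pUC57 donor pools of 1549 left-end or 1849 right-end transposon variants. Plating was done with 0.1 mM IPTG at 37°C for 18 h, with two biological output replicates and four reference barcodes.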

[2] = system: VchCAST RNA-guided transposition machinery (E. coli BL21(DE3) host, lacZ target); assay: relative integration efficiency (T-LR orientation) vs wild-type transposon end (log2 (normalized fold change)); transposon end mutated: left end; higher = more efficient transposition
Outline: as §1

Sequence	relative integration efficiency (log2) [1]	relative integration efficiency (log2) [2]
AATGTTGTTGATGCAACCATAAAGTGATATTTAATACGGCGGGCGCCGACTACCAGGCCAACACCCCACCAACGCGCGGTCGCGAGACACCCCACCAACGCCTGGTCGCGGGGGTGTCCGATCTGATTTCAGCAAAACTACTGCAGTAAGAA	-6.9 ± 1.3	-4.75 ± 2
AATGTTGTTGATGCAACCATAAAGTGATATTTAATAGTACTGCGCGACTGAAATCATCATTAAAACGCAACCATATATTGATATCTCACAAAACAACCATAAGTTGATATTTTTGTGAATCGAGTATTTCAGCAAAACTACTGCAGTAAGAA	-4.94 ± 0.88	-3.4 ± 1.6
AATGTTGTTGATGCAACCATAAAGTGATATTTAATCAACCATAAAGTGATATTTAACTTAACCACAACAACCATATATTGATATCTCACAAAACAACCATAAGTTGATATTTTTGTGAATCGAGTATTTCAGCAAAACTACTGCAGTAAGAA	-4.54 ± 1.2	-0.257 ± 1.2
AATGTTGTTGATGCAACCATAAAGTGATATTTAATCAACCATATATTGATATCTCAATTATTTATAATCAGCAACTTAACCACAAAAACAAAACAACCATAAGTTGATATTTTTGTGAATCGAGTATTTCAGCAAAACTACTGCAGTAAGAA	-2.99 ± 0.87	-0.334 ± 1.6
AATGTTGTTGATGCAACCATAAAGTGATATTTAATCAACCATATATTGATATCTCACAAAACAACCATAAGTTGATATTTTTGTGAATCGAGTATTTCAGCAAAACTACTGCAGTAAGAAAGTTACTTCGTGGTATGGGAGGATCAAGGAGC	-3.38 ± 1.4	-0.405 ± 1
AATGTTGTTGATGCAACCATAAAGTGATATTTAATCCGGCGGGCGCCGACTACCAGGCCAACACCCCACCAACGCGCGGTCGCGAGACACCCCACCAACGCCTGGTCGCGGGGGTGTCCGATCTGATTTCAGCAAAACTACTGCAGTAAGAA	-6.75 ± 1.3	-4.25 ± 1
AATGTTGTTGATGCAACCATAAAGTGATATTTACAACCATAAAGTGATATTTAACTTAACCACAAAACAACCATATATTGATATCTCACAAAACAACCATAAGTTGATATTTTTGTGAATCGAGTATTTCAGCAAAACTACTGCAGTAAGAA	-3.13 ± 0.76	1.11 ± 0.91
AATGTTGTTGATGCAACCATAAAGTGATATTTACAACCATATATTGATATCTCACAAAACAACCATAAGTTGATATTTTATAATTATTTATAATCAGCAACTTAACCACAAAATGTGAATCGAGTATTTCAGCAAAACTACTGCAGTAAGAA	-1.4 ± 0.65	0.848 ± 1
AATGTTGTTGATGCAACCATAAAGTGATATTTACAACCATATATTGATATCTCACAAAACAACCATAAGTTGATATTTTTGTGAATCGAGTATTTCAGCAAAACTACTGCAGTAAGAAAGTTACTTCGTGGTATGGGAGGATCAAGGAGCCA	-2.61 ± 1.1	0.662 ± 0.89
AATGTTGTTGATGCAACCATAAAGTGATATTTACAACCATATATTGATATCTCACAAACAACCATAAGTTGATATTTTTGTGAATCGAGTATTTCAGCAAAACTACTGCAGTAAGAAAGTTACTTCGTGGTATGGGAGGATCAAGGAGCCAA	-2 ± 0.74	2.04 ± 0.88
AATGTTGTTGATGCAACCATAAAGTGATATTTACAACCATATATTGATATCTCACAACAACCATAAGTTGATATTTTTGTGAATCGAGTATTTCAGCAAAACTACTGCAGTAAGAAAGTTACTTCGTGGTATGGGAGGATCAAGGAGCCAAT	-2.68 ± 0.7	2.75 ± 0.92
AATGTTGTTGATGCAACCATAAAGTGATATTTACAACCATATATTGATATCTCACACAACCATAAGTTGATATTTTTGTGAATCGAGTATTTCAGCAAAACTACTGCAGTAAGAAAGTTACTTCGTGGTATGGGAGGATCAAGGAGCCAATA	-2.53 ± 0.78	3.33 ± 0.87
AATGTTGTTGATGCAACCATAAAGTGATATTTACAACCATATATTGATATCTCATAATTATTTATAATCAGCAACTTAACCACAAAAACAAAACAACCATAAGTTGATATTTTTGTGAATCGAGTATTTCAGCAAAACTACTGCAGTAAGAA	-1.85 ± 0.76	-0.75 ± 1.4
AATGTTGTTGATGCAACCATAAAGTGATATTTACAACCATATATTGATATCTCTCACAACCATAAGTTGATATTTCTCTGATCATAGTCAGACCAACATTGCTACGACCCGTATTCGCACCGACACTGTGAATCGAGTATTTCAGCAAAACT	-2.28 ± 0.64	2.61 ± 1.1
AATGTTGTTGATGCAACCATAAAGTGATATTTACAACCATATATTGATATCTCTCACAACCATAAGTTGATATTTTTGTGAATCGAGTATTTCAGCAAAACTACTGCAGTAAGAAAGTTACTTCGTGGTATGGGAGGATCAAGGAGCCAATA	-2.79 ± 0.97	3.04 ± 0.96
AATGTTGTTGATGCAACCATAAAGTGATATTTACACGAAGTGGCAACTGCCGTGCTGGCGTGCGATGCAACCATATATTGATATCTCACAAAACAACCATAAGTTGATATTTTTGTGAATCGAGTATTTCAGCAAAACTACTGCAGTAAGAA	-2.73 ± 0.84	0.496 ± 0.1
AATGTTGTTGATGCAACCATAAAGTGATATTTACCGACTGCCTGCCATCCGCCGCCGCACCGCAGCCCAACCATATATTGATATCTCACAAAACAACCATAAGTTGATATTTTTGTGAATCGAGTATTTCAGCAAAACTACTGCAGTAAGAA	-2.99 ± 0.89	-3.03 ± 1.2
AATGTTGTTGATGCAACCATAAAGTGATATTTACCGACTGTCTGCCATCAGCCGCTTAACCGCAGCCCAACCATATATTGATATCTCACAAAACAACCATAAGTTGATATTTTTGTGAATCGAGTATTTCAGCAAAACTACTGCAGTAAGAA	-3.07 ± 0.93	-3.56 ± 0.14
AATGTTGTTGATGCAACCATAAAGTGATATTTACCGACTGTCTGCCATCCGCCGCTGAACCGCAGCCCAACCATATATTGATATCTCACAAAACAACCATAAGTTGATATTTTTGTGAATCGAGTATTTCAGCAAAACTACTGCAGTAAGAA	-2.98 ± 0.99	-3.04 ± 1.6
AATGTTGTTGATGCAACCATAAAGTGATATTTACCGACTGTCTGCCATCCGCCGCTGCACCGCAGCCCAACCATATATTGATATCTCACAAAACAACCATAAGTTGATATTTTTGTGAATCGAGTATTTCAGCAAAACTACTGCAGTAAGAA	-3.24 ± 1	-2.44 ± 0.78
AATGTTGTTGATGCAACCATAAAGTGATATTTACGAATCAATTAAAATCATAGGCTTAATCGAAAAACAACCATATATTGATATCTCATAAAACAACCATAAGTTGATATTTTGGTGAAAAGGATATTCCAACCTTCATAGTTTAGTAAGAA	0.639 ± 0.032	0.612 ± 0.84
AATGTTGTTGATGCAACCATAAAGTGATATTTACGAGCCGAGCTCGTGCCCGGTGCCGCGGCAGACGCAACCATATATTGATATCTCACAAAACAACCATAAGTTGATATTTTTGTGAATCGAGTATTTCAGCAAAACTACTGCAGTAAGAA	-2.33 ± 0.72	-2.47 ± 1.1
AATGTTGTTGATGCAACCATAAAGTGATATTTACGCACTCCGTAGCCATCTGGGGCACCGGACGCTCCAACCATATATTGATATCTCACAAAACAACCATAAGTTGATATTTTTGTGAATCGAGTATTTCAGCAAAACTACTGCAGTAAGAA	-2.64 ± 0.79	-3.42 ± 0.88
AATGTTGTTGATGCAACCATAAAGTGATATTTACGCCGGCGGGCGCCGACTACCAGGCCAACACCCCACCAACGCGCGGTCGCGAGACACCCCACCAACGCCTGGTCGCGGGGGTGTCCGATCTGATTTCAGCAAAACTACTGCAGTAAGAA	-6.9 ± 0.36	-6.15 ± 3.6
